# Measurements as given in publication PMC11374805.
# pKd: −log10 of the molar value.
# Target: peptidase domain (PD) of human ACE2 (human) (UniProt Q9BYF1)
# Assay: BLI
substance,measurement,value
RBD (319-541 a.a) of S protein from SARS-CoV-2 Omicron variant BA.2 (domain or fragment),pKd,7.80
